Experimental data taken from PMC6098011, “Insights into degradation mechanism of N-end rule substrates by p62/SQSTM1 autophagy adapter” (Nature Communications, 2018).

What was measured:
MBP-PB1-ZZ D69A (human) = MBP-PB1-ZZ D69A (human) (UniProt Q13501); test: SPR; BIAcore 2000; MBP-PB1-ZZ WT or D69A immobilised on CM5; R-BiP N407 5-100 μM injected; 20 mM HEPES pH 7.5, 100 mM NaCl, 1 mM DTT
[1] = target: MBP-fused PB1-ZZ of p62 (residues 1-181) wild type (human) (UniProt Q13501); test: as above

R-BiP N407 protein (from UniProt P11021 19-654) (domain or fragment)
Kd (MBP-PB1-ZZ D69A (human)): 26.1 µM | Kd [1]: 20.2 µM
